Experimental data: PMC3834822, “Structure of an ‘open’ clamp type II topoisomerase-DNA complex provides a mechanism for DNA capture and transport”

B1: 26mer E-site DNA (dsDNA)
DNA 1: AGGTCATGAATGACTATGCACGTAAA
DNA 2: TTTACGTGCATAGTCATTCATGACCT
B2: 34mer V-site DNA (dsDNA)
DNA 1: CAAAGGCGGTAATACGGTTATCCACAGAATCAGG
DNA 2: CCTGATTCTGTGGATAACCGTATTACCGCCTTTG

What was measured:
ParE full-length;ParC55 = ParE full-length;ParC55 (Streptococcus pneumoniae;Streptococcus …, UniProt Q59961;P72525 1-647;1-488, |); experiment: X-ray crystallography (6.5 A); 10 mM MgCl2, 2 mM levofloxacin; cleavage complex; Crystallization: protein in 20 mM Tris-HCl pH 7.5, 100 mM NaCl, 1 mM beta-mercaptoethanol, 0.05% Na azide, 10 mM MgCl2, 2 mM levofloxacin; 4I3H reservoir 50 mM; settings: protein: recombinant;recombinant; chain copies: 2;2; 26mer duplex; 4-bp stagger between cleavage sites
[1] = biological target: ParE-ParC55 fusion protein (topo IV) (Streptococcus pneumoniae 7785, UniProt Q59961 1-647+P72525:1-488, internal_change); experiment: X-ray crystallography (3.7 A); 10 mM MgCl2, 2 mM levofloxacin added; drug-free complex; G-gate DNA bent, uncleaved; second linear B-form duplex at C-gate helices (ParC R468, K464, N461, H196); no ATP; Crystallization: protein in 20 mM Tris-HCl pH 7.5, 100 mM NaCl, 1 mM beta-mercaptoethanol, 0.05% Na azide, 10 mM MgCl2, 2 mM levofloxacin; 4I3H reservoir 50 mM; settings: protein: recombinant; tags: C-terminal His6; chain copies: 2; 34 bp duplex; 4-bp stagger between cleavage sites

Binder	binding result (ParE full-length;ParC55)	binding result [1]
B1	binds	
B2		binds
